In patent US20120213799A1 (EISAI R AND D MANAGEMENT, published 2012):
Substitutions are numbered along the chain they refer to.

T1: soluble hFKN-SEAP (extracellular region of human fractalkine conjugated to secreted alkaline phosphatase) (human, UniProt P78423 25-341)
T1 construct: Used as culture supernatant of HEK293E cells; also called soluble FKN conjugated to SEAP; not shown: secreted alkaline phosphatase (SEAP) from the vector pcDNA3.1 (+) dSalI SEAP
T1 sequence: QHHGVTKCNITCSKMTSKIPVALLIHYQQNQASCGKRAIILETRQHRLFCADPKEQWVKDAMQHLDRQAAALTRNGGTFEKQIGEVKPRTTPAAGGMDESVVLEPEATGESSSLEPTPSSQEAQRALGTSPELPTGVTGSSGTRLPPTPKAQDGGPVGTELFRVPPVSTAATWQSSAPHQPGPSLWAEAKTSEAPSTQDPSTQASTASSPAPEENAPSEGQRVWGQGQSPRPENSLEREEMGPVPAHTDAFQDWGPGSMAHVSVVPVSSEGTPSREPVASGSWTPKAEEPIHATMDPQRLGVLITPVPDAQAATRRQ

T2: recombinant human FKN (R&D Systems, Catalog No. 362-CX/CF) (human, UniProt P78423 25-100)
T2 sequence: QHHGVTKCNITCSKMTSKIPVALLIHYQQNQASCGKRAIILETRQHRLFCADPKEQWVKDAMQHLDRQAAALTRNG

T3: R68A mutated FKN-SEAP-His (human, UniProt P78423 25-340)
T3 construct: also called R68A mutant; not shown: The SEAP reporter, the residues encoded by the NotI junction and the C-terminal (His)10 tag
T3 sequence: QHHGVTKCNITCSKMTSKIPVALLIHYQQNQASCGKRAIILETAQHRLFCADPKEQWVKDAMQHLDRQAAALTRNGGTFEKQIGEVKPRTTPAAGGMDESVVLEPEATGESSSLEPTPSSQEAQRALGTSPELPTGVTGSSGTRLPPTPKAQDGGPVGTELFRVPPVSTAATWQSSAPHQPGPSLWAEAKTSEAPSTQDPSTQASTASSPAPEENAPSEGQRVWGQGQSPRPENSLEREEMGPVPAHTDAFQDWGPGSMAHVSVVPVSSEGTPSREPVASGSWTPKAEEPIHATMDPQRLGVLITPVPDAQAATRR

B1: mouse anti-hFKN mAb clone 3A5-2 (antibody, mouse IgG2a, V domains shown)
VH: QVQLQQSGPELVKPGASVKMSCKASGYTFTNYYIHWVKQRPGQGLEWIGWIYPGDGSPKFNERFKGKTTLTADKSSNTAYMLLSSLTSEDSAIYFCATGPTDGDYFDYWGQGTTLTVSS
VL: DIQMTQSPASLSASVGETVTITCRASGNIHNFLAWYQQKQGKSPQFLVYNEKTLADGVPSRFSGSGSGTQYSLKINSLQPEDFGIYFCQQFWSTPYTFGGGTKLEIK
notes: Mouse monoclonal from hybridoma; Heavy chain was amplified with a mouse IgG2a CH3 primer and light chain with a mouse Ckappa primer; also called m3A5-2; m3A5-2 mAb
B2: mouse-human chimeric 3A5-2 mAb (antibody, human IgG2, V domains shown)
VH: B1 VH
VL: B1 VL
notes: also called chimeric mAb
B3: humanized anti-hFKN mAb H3-2L4-IgG2 (antibody, V domains shown)
VH: QVQLVQSGAEVKKPGASVKVSCKASGYTFTNYYIHWVKQAPGQGLEWIGWIYPGDGSPKFNERFKGRTTLTADKSTNTAYMLLSSLRSEDTAVYFCATGPTDGDYFDYWGQGTTVTVSS
VL: DIQMTQSPSSLSASVGDRVTITCRASGNIHNFLAWYQQKPGKAPKLLIYNEKTLADGVPSRFSGSGSGTDYTLTISSLQPEDFATYFCQQFWSTPYTFGGGTKVEIK
notes: also called H3-2L4 antibody
B4: humanized anti-hFKN mAb H3-2L2-IgG2 (antibody, V domains shown)
VH: B3 VH
VL: B3 VL with L46F, I48V, D70Q
B5: humanized anti-hFKN mAb H3L2-IgG2 (antibody, V domains shown)
VH: B3 VH with E89D
VL: B3 VL with L46F, I48V, D70Q
B6: humanized anti-hFKN mAb H3-L4-IgG2 (antibody, V domains shown)
VH: B3 VH with E89D
VL: B3 VL

Assays:
[1] = biological target: T1, soluble hFKN-SEAP (extracellular region …); experiment: BIACORE, mAb captured on Protein-A/G, soluble FKN-SEAP as analyte (also ELISA on captured hFKN-SEAP)
Method: (§1) BIACORE® assays were performed as follows. Recombinant Protein-A/G (Pierce Chemical) was immobilized on BIACORE® sensor chips (CM5) that were pre-activated with amine coupling reagents (GE Healthcare). Purified mAbs were added into the sensor chips at a concentration of 0.2 μg/ml. Soluble antigens (soluble FKN conjugated to secreted alkaline phosphatase (SEAP) or control SEAP proteins) were added into the sensor chips at various concentrations (0 to 200 nM). Association of added antigens with mAbs captured on the sensor chips was monitored continuously, and the relative binding response of the antigens was determined using a BIACORE® A100 system (GE Healthcare).
ELISAs were performed as follows. Polyclonal anti-rabbit IgG antibody (Jackson ImmunoResearch Laboratories, Catalog No. 711-005-152) was coated on the wells of a 96-well plate (Nunc, Catalog No. 442402). After overnight incubation at 4° C., the wells were blocked with 1× Block-Ace (DainipponPharma) for 1 hour at room temperature. After washing three times with 0.05% Tween 20/PBS, 10 nM rabbit polyclonal anti-PLAP antibody (Biomeda) was added to the wells (50 μl/well). […] An equal volume of stopping solution (2 M H₂SO₄) was added to the wells and the optical density at 450 nm was read by a microplate reader (Arvo, PerkinElmer).

[2] = biological target: T1, soluble hFKN-SEAP (extracellular region …); experiment: BIACORE, mAb captured by anti-human IgG, FKN-SEAP as analyte
Method: as §1
The BIACORE® assays were performed as described above. However, for humanized and chimeric mAbs, anti-human IgG mouse mAb (GE Healthcare) was used as the capturing antibody on the sensor chip.

[3] = biological target: T2, recombinant human FKN (R&D Systems, …); experiment: cell-based or functional assay
[4] = biological target: T3, R68A mutated FKN-SEAP-His; experiment: sandwich ELISA, H3-2L4 coated, mutant hFKN-SEAP added, alkaline phosphatase read at 405 nm
Method: Mouse anti-human FKN monoclonal antibodies (1F3, 1G1, 2B2, 3D5, 6D1, 7F6) and H3-2L4 antibody were coated on an ELISA plate (Nunc) overnight at 4° C. The antibody solutions were removed. PBS solution containing 1% BSA was added to each well and incubated for 1 hour at room temperature, and the wells were washed with Tris-buffered saline (pH 7.4) containing 0.05% Tween 20. The wild type and R68A mutated FKN-SEAP-His solution (1, 0.5, 0.25, 0.125 nM) were added to the wells and incubated for 2 hours at room temperature. The antigen solutions were removed and washed with washing solution. p-Nitrophenyl phosphate solution (Thermo Scientific) was added to each well and incubated for 30 minutes at room temperature. The reaction was terminated with 1N NaOH solution and absorbance at 405 nm was measured.

binding result [2] | other results | Binder
– | binding result [1]: binds | B1
binds | – | B2
– | CTX (IC50, nM) [3]: 0.2 nM; binding result [4]: no binding (tested: 0.13 nM) | B3
binds | – | B4
binds | – | B5
binds | – | B6
